Test [1] deals with T1, human GLP-1 receptor (human, UniProt P43220 24-463).
T1 construct: whole, on cells
Description: competitive binding (SPA): displacement of 125I-GLP-1(7-36)NH2 from BHK cell membranes with human GLP-1 receptor; low HSA (max. 0.001% final).
Description: (§1) For the receptor binding assay in the presence of low HSA (0.005%) 50 μl of the assay buffer was added to each well of an assay plate. […] For the receptor binding assay in the presence of high HSA (2%) 50 μl of the 8% albumin stock was added to each well of an assay plate. […] Cell membrane aliquots were thawed and diluted to their working concentration. Fifty μl were added to each well in the assay plate. […] WGA SPA beads were suspended in assay buffer at 20 mg/ml. The suspension was diluted to 10 mg/ml in assay buffer just prior to addition to the assay plate. Fifty μl were added to each well in the assay plate. […] A 25 μl aliquot was reserved for measuring total counts/well. […] The assay plate was incubated for 2 h at 30° C. […] The assay plate was centrifuged for 10 min. […] The assay plate was read in a Packard TopCount NXT instrument.

The target in test [2] is T1, human GLP-1 receptor. Description: cell-based or functional assay.
Test [3] addresses T1, human GLP-1 receptor. In words: competitive binding (SPA): displacement of 125I-GLP-1(7-36)NH2 from BHK cell membranes with human GLP-1 receptor; high HSA (2.0% final).
Description: as §1

Numbered stars: 1 amine (or outer) side, 2 acyl side, 3 side chain; on linkers, the order of the positions; unused ones are H or OH. Square brackets hold non-standard residues; d marks the D form. Side chains are listed from the residue outwards. Ends that are not written are not given here. * marks the point of attachment. C22 diacid = O=C(O)CCCCCCCCCCCCCCCCCCCCC(=O)*; C20 diacid = O=C(O)CCCCCCCCCCCCCCCCCCC(=O)*; γGlu = O=C(O)[C@H](CCC(=O)[*:2])N[*:1]; εLys = N[C@@H](CCCCN[*:1])C(=O)[*:2]; Trx = NC[C@H]1CC[C@H](C(=O)O)CC1; AEEA = NCCOCCOCC(=O)O; Aib = CC(C)(N)C(=O)O

B1: N{Alpha}([Aib8,Glu22,Arg26,Arg34]-GLP-1-(7-37)-peptidyl)-N{Epsilon}[(2S)-2-amino-6-[[(2S)-2-amino-6-[[(4S)-4-carboxy-4-[[4-[(19-carboxynonadecanoylamino)methyl] … (peptide)
peptide: H[Aib]EGTFTSDVSSYLEEQAAREFIAWLVRGRGK([εLys-εLys-γGlu-Trx-C20 diacid])GGSK([εLys-εLys-γGlu-Trx-C20 diacid])
notes: Double-acylated, C-terminally extended GLP-1 analogue made by SPPS
With B1, the IC50 with human GLP-1 receptor [1] was determined as 2.2 nM; with human GLP-1 receptor [3], 197 nM. The “EC50 (pM), in vitro potency, CRE luciferase reporter gene assay in BHK cells expressing the human GLP-1 receptor” value (“EC50 (pM), in vitro potency” for short) in the test with human GLP-1 receptor [2] came to 381 pM.

B2: N{Alpha}([Aib8,Glu22,Arg26,Arg34]-GLP-1-(7-37)-peptidyl)-N{Epsilon}[2-[2-[2-[[2-[2-[2-[[2-[2-[2-[[2-[2-[2-[[2-[2-[2-[[2-[2-[2-[[(2S)-2-amino-6-[[(2S)-2-amino-6- … (peptide)
peptide: H[Aib]EGTFTSDVSSYLEEQAAREFIAWLVRGRGK([AEEA-AEEA-AEEA-AEEA-AEEA-AEEA-εLys-εLys-C20 diacid])GGSK([AEEA-AEEA-AEEA-AEEA-AEEA-AEEA-εLys-εLys-C20 diacid])
notes: Double-acylated, C-terminally extended GLP-1 analogue made by SPPS; also called 28
On to B2, for which the IC50 in the test with human GLP-1 receptor [1] stood at 0.05 nM; with human GLP-1 receptor [3], 30 nM. Also, the “EC50 (pM), in vitro potency” value with human GLP-1 receptor [2] was determined as 3.4 pM.

B3: N{Alpha}Aib8,Glu22,Arg26,Arg34]-GLP-1-(7-37)-peptidyl)-N{Epsilon}[2-[2-[2-[[2-[2-[2-[[(4S)-4-carboxy-4-[[4-[(21-carboxyhenicosanoylamino)methyl]cyclohexanecarbo … (peptide)
peptide: H[Aib]EGTFTSDVSSYLEEQAAREFIAWLVRGRGK([AEEA-AEEA-γGlu-Trx-C22 diacid])GGSK([AEEA-AEEA-γGlu-Trx-C22 diacid])
notes: as for B1
With B3, the results for the IC50 in the test with human GLP-1 receptor [1] and with human GLP-1 receptor [3] were 1.6 nM and 21 nM, respectively. Further, the “EC50 (pM), in vitro potency” value with human GLP-1 receptor [2] came to 101 pM.

B4: N{Alpha}([Aib8,Glu22,Arg26,Arg34]-GLP-1-(7-37)-peptidyl)-N{Epsilon}[2-[2-[2-[[2-[2-[2-[[2-[2-[2-[[2-[2-[2-[[2-[2-[2-[[(2S)-2-amino-6-[[(2S)-2-amino-6-(19-carbox … (peptide)
peptide: H[Aib]EGTFTSDVSSYLEEQAAREFIAWLVRGRGK([AEEA-AEEA-AEEA-AEEA-AEEA-εLys-εLys-C20 diacid])GGSK([AEEA-AEEA-AEEA-AEEA-AEEA-εLys-εLys-C20 diacid])
notes: Double-acylated, C-terminally extended GLP-1 analogue made by SPPS; also called 27
As for B4, the IC50 with human GLP-1 receptor [1] stood at 0.08 nM; in the test with human GLP-1 receptor [3] it was 30 nM. For the same molecule, in the test with human GLP-1 receptor [2], the “EC50 (pM), in vitro potency” value worked out at 4.4 pM.

Source of the values: patent US20150011462A1 (Novo Nordisk, published 2015).
